Measurements as given in PMC8096781.

Target: endogenous PKM2 (HeLa cells) (human (endogenous in HeLa)) (UniProt P14618)
Assay: SEC; gel chromatography (Superdex 200, cold PBS, 4 °C, 0.3 mL/min) of extracts of HeLa cells with vector, FOXM1A or FOXM1D; fractions analysed by western blot

Chain of endogenous PKM2 (HeLa cells), P14618 1-531 (enzyme; other documents disagree on this pair) (P14618 whole entry): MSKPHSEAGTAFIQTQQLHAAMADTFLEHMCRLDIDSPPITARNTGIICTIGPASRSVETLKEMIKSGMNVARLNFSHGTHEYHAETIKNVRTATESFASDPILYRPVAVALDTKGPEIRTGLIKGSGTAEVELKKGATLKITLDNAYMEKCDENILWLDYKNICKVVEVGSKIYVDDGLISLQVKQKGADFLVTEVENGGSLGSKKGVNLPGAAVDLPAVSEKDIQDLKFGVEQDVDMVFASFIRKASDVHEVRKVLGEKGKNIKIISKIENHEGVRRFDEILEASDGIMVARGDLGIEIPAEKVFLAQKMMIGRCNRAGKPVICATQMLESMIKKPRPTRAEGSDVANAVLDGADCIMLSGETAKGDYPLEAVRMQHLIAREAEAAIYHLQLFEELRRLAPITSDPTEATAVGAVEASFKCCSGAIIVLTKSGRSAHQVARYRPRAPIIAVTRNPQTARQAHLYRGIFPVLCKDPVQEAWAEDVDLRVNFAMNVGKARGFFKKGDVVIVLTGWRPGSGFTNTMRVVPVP

stoichiometry N: 2
Substance: endogenous PKM2 (HeLa cells), P14618 1-531 (enzyme; other documents disagree on this pair)
